# Results taken from patent US12692305 (REVERB THERAPEUTICS, dated 2026).
# Numbering of substitutions follows the chain as printed.
# B1: RV26 (bispecific antibody, human IgG1, lambda, L234A L235A)
# heavy 1: QVQLVQSGAEVKKPGASVKVSCKASGYSFSSFGISWVRQAPGQGLEWLGWISAFNGYTKYAQKFQDRVTMTTDTSTSTAYMELRSLRSDDTAVYYCARDPAAWPLQQSLAWFDPWGQGTMVTVSSASTKGPSVFPLAPSSKSTSGGTAALGCLVKDYFPEPVTVSWNSGALTSGVHTFPAVLQSSGLYSLSSVVTVPSSSLGTQTYICNVNHKPSNTKVDKKVEPKSCDKTHTCPPCPAPEAAGGPSVFLFPPKPKDTLMISRTPEVTCVVVDVSHEDPEVKFNWYVDGVEVHNAKTKPREEQYNSTYRVVSVLTVLHQDWLNGKEYKCKVSNKALGAPIEKTISKAKGQPREPQVYVYPPSRDELTKNQVSLTCLVKGFYPSDIAVEWESNGQPENNYKTTPPVLDSDGSFALVSKLTVDKSRWQQGNVFSCSVMHEALHNHYTQKSLSLSPGKGGGGSGGGGSGGGGSGGGGSEIVLTQSPATLSLSPGERATLSCRASKGVSTSGYSYLHWYQQKPGQAPRLLIYLASYLESGVPARFSGSGSGTDFTLTISSLEPEDFAVYYCQHSRDLPLTFGCGTKVEIKGGSGGGSGGGSGGGSGGGSGQVQLVQSGVEVKKPGASVKVSCKASGYTFTNYYMYWVRQAPGQCLEWMGGINPSNGGTNFNEKFKNRVTLTTDSSTTTAYMELKSLQFDDTAVYYCARRDYRFDMGFDYWGQGTTVTVSS
# heavy 2: QVQLVQSGAEVKKPGASVKVSCKASGYSFSSFGISWVRQAPGQGLEWLGWISAFNGYTKYAQKFQDRVTMTTDTSTSTAYMELRSLRSDDTAVYYCARDPAAWPLQQSLAWFDPWGQGTMVTVSSASTKGPSVFPLAPSSKSTSGGTAALGCLVKDYFPEPVTVSWNSGALTSGVHTFPAVLQSSGLYSLSSVVTVPSSSLGTQTYICNVNHKPSNTKVDKKVEPKSCDKTHTCPPCPAPEAAGGPSVFLFPPKPKDTLMISRTPEVTCVVVDVSHEDPEVKFNWYVDGVEVHNAKTKPREEQYNSTYRVVSVLTVLHQDWLNGKEYKCKVSNKALGAPIEKTISKAKGQPREPQVYVLPPSRDELTKNQVSLLCLVKGFYPSDIAVEWESNGQPENNYLTWPPVLDSDGSFFLYSKLTVDKSRWQQGNVFSCSVMHEALHNHYTQKSLSLSPG
# light: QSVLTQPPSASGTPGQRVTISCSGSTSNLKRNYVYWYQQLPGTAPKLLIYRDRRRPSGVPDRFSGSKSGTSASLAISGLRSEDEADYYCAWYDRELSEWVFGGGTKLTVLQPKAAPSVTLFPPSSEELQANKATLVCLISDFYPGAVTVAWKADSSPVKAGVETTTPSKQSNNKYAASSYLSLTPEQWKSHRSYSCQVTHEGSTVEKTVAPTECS
# notes: Heterodimeric IgG1 LALAPG, two anti-IL-15 Fabs and one anti-PD1 scFv (H1H2L1L1); also called fusion of 1 scFv to a HC of a bispecific antibody in Fab-Fab format (RV26)
# B2: RV15 (bispecific antibody, human IgG1, kappa, lambda, L234A L235A)
# heavy 1: QVQLVQSGVEVKKPGASVKVSCKASGYTFTNYYMYWVRQAPGQGLEWMGGINPSNGGTNFNEKFKNRVTLTTDSSTTTAYMELKSLQFDDTAVYYCARRDYRFDMGFDYWGQGTTVTVSSASTKGPSVFPLAPSSKSTSGGTAALGCEVTDYFPEPVTVSWNSGALTSGVHTFPAVLESSGLYSLSSVVTVPSSSLGTQTYICNVNHKPSNTKVDKKVEPDSCDKTHTCPPCPAPEAAGGPSVFLFPPKPKDTLMISRTPEVTCVVVDVSHEDPEVKFNWYVDGVEVHNAKTKPREEQYNSTYRVVSVLTVLHQDWLNGKEYKCKVSNKALGAPIEKTISKAKGQPREPQVYVYPPSRDELTKNQVSLTCLVKGFYPSDIAVEWESNGQPENNYKTTPPVLDSDGSFALVSKLTVDKSRWQQGNVFSCSVMHEALHNHYTQKSLSLSPG
# light 1: EIVLTQSPATLSLSPGERATLSCRASKGVSTSGYSYLHWYQQKPGQAPRLLIYLASYLESGVPARFSGSGSGTDFTLTISSLEPEDFAVYYCQHSRDLPLTFGGGTKVEIKRTVAAPSVFIFPPKDERLKSGTASVVCLLNNFYPREAKVQWKVDNALQSGNSQESVTEQDSKDSTYSLSSRLTLSKADYEKHKVYACEVTHQGLSSPVTKSFNRGEC
# heavy 2: B1 heavy 2 with A137R, S191K
# light 2: QSVLTQPPSASGTPGQRVTISCSGSTSNLKRNYVYWYQQLPGTAPKLLIYRDRRRPSGVPDRFSGSKSGTSASLAISGLRSEDEADYYCAWYDRELSEWVFGGGTKLTVLQPKAAPSVTLFPPSDEELQANTATLVCLISDFYPGAVTVAWKADSSPVKAGVETTTPSKQSNNKYAAESELSLTPEQWKSHRSYSCQVTHEGSTVEKTVAPTECS
# notes: Asymmetric IgG1 LALAPG heterodimer, one anti-PD1 Fab arm and one anti-IL-15 Fab arm (H1H2L1L2); also called bispecific antibody in a Fab-Fab format (RV15)
# B3: RV29 (bispecific antibody, human IgG1, kappa, L234A L235A)
# heavy: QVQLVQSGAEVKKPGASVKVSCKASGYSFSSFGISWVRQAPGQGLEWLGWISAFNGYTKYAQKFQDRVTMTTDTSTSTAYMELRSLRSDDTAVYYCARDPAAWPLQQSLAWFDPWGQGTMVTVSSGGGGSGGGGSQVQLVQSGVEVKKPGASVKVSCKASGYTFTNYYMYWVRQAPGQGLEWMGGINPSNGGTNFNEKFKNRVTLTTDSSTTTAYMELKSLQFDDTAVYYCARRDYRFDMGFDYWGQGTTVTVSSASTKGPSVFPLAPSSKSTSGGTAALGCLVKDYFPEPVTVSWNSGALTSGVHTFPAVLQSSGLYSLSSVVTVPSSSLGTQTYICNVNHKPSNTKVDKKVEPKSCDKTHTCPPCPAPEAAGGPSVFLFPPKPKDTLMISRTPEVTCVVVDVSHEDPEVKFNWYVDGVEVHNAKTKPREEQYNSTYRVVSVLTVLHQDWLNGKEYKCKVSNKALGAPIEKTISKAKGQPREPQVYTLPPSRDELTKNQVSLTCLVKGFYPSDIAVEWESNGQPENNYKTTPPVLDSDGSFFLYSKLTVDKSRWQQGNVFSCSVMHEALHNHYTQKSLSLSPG
# light: QSVLTQPPSASGTPGQRVTISCSGSTSNLKRNYVYWYQQLPGTAPKLLIYRDRRRPSGVPDRFSGSKSGTSASLAISGLRSEDEADYYCAWYDRELSEWVFGGGTKLTVLGGGGSGGGGSEIVLTQSPATLSLSPGERATLSCRASKGVSTSGYSYLHWYQQKPGQAPRLLIYLASYLESGVPARFSGSGSGTDFTLTISSLEPEDFAVYYCQHSRDLPLTFGGGTKVEIKRTVAAPSVFIFPPSDEQLKSGTASVVCLLNNFYPREAKVQWKVDNALQSGNSQESVTEQDSKDSTYSLSSTLTLSKADYEKHKVYACEVTHQGLSSPVTKSFNRGEC
# notes: Dual variable domain format, IgG1 LALAPG; also called bispecific antibody in DVD format (RV29); bispecific anti-PD-1 x anti-IL-15 antibody
# B4: RV1 (antibody, human IgG1, lambda, V domains shown)
# VH: QVQLVQSGAEVKKPGASVKVSCKASGYSFSSFGISWVRQAPGQGLEWLGWISAFNGYTKYAQKFQDRVTMTTDTSTSTAYMELRSLRSDDTAVYYCARDPAAWPLQQSLAWFDPWGQGTMVTVSS
# VL: QSVLTQPPSASGTPGQRVTISCSGSTSNLKRNYVYWYQQLPGTAPKLLIYRDRRRPSGVPDRFSGSKSGTSASLAISGLRSEDEADYYCAWYDRELSEWVFGGGTKLTVLQ
# notes: also called anti-IL-15 antibody (RV1); DISC0280-derived monospecific parent antibody
# B5: RV31 (bispecific antibody, human IgG1, kappa, lambda, L234A L235A)
# heavy: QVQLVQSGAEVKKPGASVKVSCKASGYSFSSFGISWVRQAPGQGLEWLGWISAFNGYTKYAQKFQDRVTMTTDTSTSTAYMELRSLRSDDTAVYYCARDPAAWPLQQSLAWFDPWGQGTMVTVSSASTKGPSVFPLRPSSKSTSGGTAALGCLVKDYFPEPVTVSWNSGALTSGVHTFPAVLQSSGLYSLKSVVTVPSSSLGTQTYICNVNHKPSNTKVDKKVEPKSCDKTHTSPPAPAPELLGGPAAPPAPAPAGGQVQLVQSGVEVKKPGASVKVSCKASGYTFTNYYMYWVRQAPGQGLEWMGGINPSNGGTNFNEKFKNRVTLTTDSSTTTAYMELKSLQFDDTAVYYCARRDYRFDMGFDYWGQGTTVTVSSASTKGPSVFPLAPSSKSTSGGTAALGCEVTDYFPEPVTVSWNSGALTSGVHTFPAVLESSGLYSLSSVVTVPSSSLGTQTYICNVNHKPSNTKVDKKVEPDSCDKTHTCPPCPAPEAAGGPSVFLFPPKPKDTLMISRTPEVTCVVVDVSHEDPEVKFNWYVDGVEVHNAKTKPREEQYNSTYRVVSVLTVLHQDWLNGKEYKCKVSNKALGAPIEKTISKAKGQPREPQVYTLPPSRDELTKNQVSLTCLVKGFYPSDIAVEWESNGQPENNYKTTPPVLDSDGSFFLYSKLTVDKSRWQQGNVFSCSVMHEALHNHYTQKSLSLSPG
# light 1: B2 light 1
# light 2: B2 light 2
# notes: Dual Fab domain format (H1H1L1L1L2L2), IgG1 LALAPG; Purity 83 % main peak; O-glycosylation reported, likely in the inter-Fab linker
# B6: RV32 (bispecific antibody, human IgG1, kappa, lambda, L234A L235A)
# heavy: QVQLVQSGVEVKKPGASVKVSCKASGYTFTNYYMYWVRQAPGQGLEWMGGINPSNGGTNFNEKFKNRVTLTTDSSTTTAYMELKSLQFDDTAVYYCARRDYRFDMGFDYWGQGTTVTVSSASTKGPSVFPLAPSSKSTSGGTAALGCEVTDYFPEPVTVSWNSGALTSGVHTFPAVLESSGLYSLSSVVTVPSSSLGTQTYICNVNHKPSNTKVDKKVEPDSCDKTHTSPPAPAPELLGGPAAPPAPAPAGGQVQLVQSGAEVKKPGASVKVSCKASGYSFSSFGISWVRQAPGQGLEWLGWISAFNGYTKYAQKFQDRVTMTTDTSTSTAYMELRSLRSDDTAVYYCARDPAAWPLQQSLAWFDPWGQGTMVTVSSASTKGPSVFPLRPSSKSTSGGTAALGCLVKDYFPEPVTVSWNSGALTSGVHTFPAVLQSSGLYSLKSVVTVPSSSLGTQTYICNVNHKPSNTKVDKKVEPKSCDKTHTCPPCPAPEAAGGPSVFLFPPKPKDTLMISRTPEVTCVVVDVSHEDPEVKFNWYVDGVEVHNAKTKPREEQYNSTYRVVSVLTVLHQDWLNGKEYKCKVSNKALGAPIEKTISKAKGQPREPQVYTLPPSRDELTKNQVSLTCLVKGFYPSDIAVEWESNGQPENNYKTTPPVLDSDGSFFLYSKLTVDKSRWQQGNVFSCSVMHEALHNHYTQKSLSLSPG
# light 1: B2 light 1
# light 2: B2 light 2
# notes: Dual Fab domain format (H1H1L1L1L2L2), IgG1 LALAPG; O-glycosylation reported, likely in the inter-Fab linker; also called bispecific antibody in dual Fab domain format (RV32); bispecific anti-PD-1 x anti-IL-15 antibody
# B7: RV36 (bispecific antibody, human IgG1, kappa, L234A L235A)
# heavy: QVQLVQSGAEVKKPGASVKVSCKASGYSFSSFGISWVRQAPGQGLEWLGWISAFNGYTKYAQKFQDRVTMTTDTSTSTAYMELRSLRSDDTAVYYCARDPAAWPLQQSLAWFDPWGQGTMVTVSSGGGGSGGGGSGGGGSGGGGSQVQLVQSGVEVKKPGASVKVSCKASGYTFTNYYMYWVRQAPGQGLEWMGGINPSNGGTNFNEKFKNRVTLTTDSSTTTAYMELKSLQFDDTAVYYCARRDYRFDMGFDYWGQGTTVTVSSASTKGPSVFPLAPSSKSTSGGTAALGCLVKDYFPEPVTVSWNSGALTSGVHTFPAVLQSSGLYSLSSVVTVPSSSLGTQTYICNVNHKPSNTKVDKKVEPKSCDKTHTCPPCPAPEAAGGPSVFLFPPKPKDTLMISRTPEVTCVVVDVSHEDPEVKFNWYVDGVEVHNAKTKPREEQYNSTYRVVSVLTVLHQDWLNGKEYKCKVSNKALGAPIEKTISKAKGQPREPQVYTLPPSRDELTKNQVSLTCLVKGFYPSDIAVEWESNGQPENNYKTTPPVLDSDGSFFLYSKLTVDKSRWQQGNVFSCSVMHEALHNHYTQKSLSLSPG
# light: QSVLTQPPSASGTPGQRVTISCSGSTSNLKRNYVYWYQQLPGTAPKLLIYRDRRRPSGVPDRFSGSKSGTSASLAISGLRSEDEADYYCAWYDRELSEWVFGGGTKLTVLGGGGSGGGGSGGGGSGGGGSEIVLTQSPATLSLSPGERATLSCRASKGVSTSGYSYLHWYQQKPGQAPRLLIYLASYLESGVPARFSGSGSGTDFTLTISSLEPEDFAVYYCQHSRDLPLTFGGGTKVEIKRTVAAPSVFIFPPSDEQLKSGTASVVCLLNNFYPREAKVQWKVDNALQSGNSQESVTEQDSKDSTYSLSSTLTLSKADYEKHKVYACEVTHQGLSSPVTKSFNRGEC
# notes: Dual variable domain format like RV29 but with a longer inter-Fv linker, IgG1 LALAPG
# Biological target: T1, human IL-15 (human, UniProt P40933 49-162)
# T1 construct: also called Premium grade IL-15; GMP grade human IL-15
# Assay: SPR, variant captured on anti-human Fc, IL-15 analyte, single-cycle kinetics, 1:1 fit
# Description: (§1) EDC: 1-ethyl-3-(3-dimethylaminopropyl) carbodiimide hydrochloride; NHS: N-Hydroxysuccinimide; SPR: surface plasmon resonance; EDTA: ethylenediaminetetraacetic acid SPR Supplies Series S Sensor Chip CM5, Biacore amine coupling kit (NHS, EDC and 1 M ethanolamine), and 10 mM sodium acetate buffers were purchased from Cytiva Life Sciences (Marlborough, MA). […] PBS running buffer with 1% Tween20 (PBST) was purchased from Teknova Inc. (Hollister, Calif.). Goat polyclonal anti-human Fc antibody was purchased from Jackson Immuno Research Laboratories Inc. (West Grove, Pa.). EDTA was purchased from Bioshop (Burlington, ON). All SPR assays were carried out using a Biacore T200 Surface Plasmon Resonance instrument (Cytiva Life Sciences, (Marlborough, MA)) with PBST running buffer (with 0.5 M EDTA stock solution added to 3.4 mM final concentration) at a temperature of 25° C. The anti-human Fc capture surface was generated using a Series S Sensor Chip CM5 using the default parameters under the Immobilization Wizard in the Biacore T200 control software which was set to target 3000 resonance units (RUs).
# The first flow cell was left empty to use as a blank control. […] The captured antibody surfaces were regenerated twice by 10 mM Glycine pH1.5 for 30 seconds at 30 μL/min. Buffer injections were performed for each analyte injection to be used for referencing.
# T1 sequence (P40933 49-162 limits assumed): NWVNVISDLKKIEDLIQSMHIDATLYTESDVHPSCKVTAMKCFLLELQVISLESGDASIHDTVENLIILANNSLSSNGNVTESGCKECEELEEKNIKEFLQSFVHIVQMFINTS
row,Kd,Binder
1,0.396 nM,B1
2,0.108 nM,B2
3,0.114 nM,B3
4,0.349 nM,B4
5,0.18 nM,B5
6,0.108 nM,B6
7,0.116 nM,B7

# Biological target: T2, human PD-1 (human, UniProt Q15116 25-167, limits assumed)
# T2 construct: Recombinant protein used in SPR as analyte or amine-coupled ligand; also called PD1 antigen
# Assay: SPR, variant as analyte over immobilised PD1 (avidity possible); PD1 capture surface, RV29 as analyte (third entry of the cell; avidity possible)
# T2 sequence (Q15116 25-167 limits assumed): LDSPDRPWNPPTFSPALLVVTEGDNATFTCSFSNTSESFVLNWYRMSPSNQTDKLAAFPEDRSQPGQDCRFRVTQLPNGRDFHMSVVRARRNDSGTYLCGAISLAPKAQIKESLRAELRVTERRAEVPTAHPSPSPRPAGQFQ
row,Kd,Binder
1,2.35 nM,B3

# Biological target: T1, human IL-15
# Assay: SPR, variant captured on immobilised PD1, IL-15 analyte, single-cycle kinetics, 1:1 fit
row,Kd,Binder
1,0.339 nM,B3
2,0.717 nM,B5
3,0.352 nM,B6
4,0.111 nM,B7

# Biological target: T2, human PD-1
# Assay: SPR, variant captured on protein A, PD1 analyte
# Description: as §1, with “The anti-human Fc capture surface was generated using a Series S Sensor Chip CM5 using the default parameters under the Immobilization Wizard in the Biacore T200 control software which was set to target 3000 resonance units (RUs).” left out
# The first flow cell was left empty to use as a blank control. […] Buffer injections were performed for each analyte injection to be used for referencing.
row,Kd,Binder
1,97 nM,B7

# Biological target: T2, human PD-1
# Assay: SPR, variant as analyte over immobilised PD1
row,Kd,Binder
1,2.19 nM,B1
2,3.62 nM,B2

# Biological target: T2, human PD-1
# Assay: SPR, variant as analyte over immobilised PD1 (avidity possible)
row,Kd,Binder
1,0.163 nM,B5
2,0.0678 nM,B6
3,0.243 nM,B7
